Data: patent US20140178854A1

Columns and labels:
[1] = target: gp70 env protein of amphotropic MLV (4070A envelope), on purified viral particles (amphotropic murine leukemia virus (4070A envelope)); assay: ELISA on plate-bound MLV, dilution factor 781250, Exp125-Ana Plate 2
[2] = target: gp70 env protein of amphotropic MLV (4070A envelope), on purified viral particles (amphotropic murine leukemia virus (4070A envelope)); assay: ELISA on plate-bound MLV, dilution factor 10, Exp072-DTV Plate 1
[3] = target: gp70 env protein of amphotropic MLV (4070A envelope), on purified viral particles (amphotropic murine leukemia virus (4070A envelope)); assay: ELISA on plate-bound MLV, dilution factor 6250, Exp072-DTV Plate 1
[4] = target: gp70 env protein of amphotropic MLV (4070A envelope), on purified viral particles (amphotropic murine leukemia virus (4070A envelope)); assay: ELISA on plate-bound MLV, dilution factor 6250, inter-assay mean of six experiments
[5] = target: gp70 env protein of amphotropic MLV (4070A envelope), on purified viral particles (amphotropic murine leukemia virus (4070A envelope)); assay: ELISA on plate-bound MLV, dilution factor 250, Exp125-Ana Plate 1
[6] = target: gp70 env protein of amphotropic MLV (4070A envelope), on purified viral particles (amphotropic murine leukemia virus (4070A envelope)); assay: ELISA on plate-bound MLV, dilution factor 31250, Exp074-DTV Plate 2
[7] = target: gp70 env protein of amphotropic MLV (4070A envelope), on purified viral particles (amphotropic murine leukemia virus (4070A envelope)); assay: ELISA on plate-bound MLV, dilution factor 6250, Exp122-Ana Plate 2
[8] = target: gp70 env protein of amphotropic MLV (4070A envelope), on purified viral particles (amphotropic murine leukemia virus (4070A envelope)); assay: ELISA on plate-bound MLV, dilution factor 6250, Exp073-DTV Plate 1
[9] = target: gp70 env protein of amphotropic MLV (4070A envelope), on purified viral particles (amphotropic murine leukemia virus (4070A envelope)); assay: ELISA on plate-bound MLV, dilution factor 6250, Exp125-Ana Plate 1
[10] = target: gp70 env protein of amphotropic MLV (4070A envelope), on purified viral particles (amphotropic murine leukemia virus (4070A envelope)); assay: ELISA on plate-bound MLV, dilution factor 50, Exp072-DTV Plate 1
[11] = target: gp70 env protein of amphotropic MLV (4070A envelope), on purified viral particles (amphotropic murine leukemia virus (4070A envelope)); assay: ELISA on plate-bound MLV, dilution factor 156250, Exp072-DTV Plate 2
[12] = target: gp70 env protein of amphotropic MLV (4070A envelope), on purified viral particles (amphotropic murine leukemia virus (4070A envelope)); assay: ELISA on plate-bound MLV, dilution factor 781250, Exp072-DTV Plate 1
[13] = target: gp70 env protein of amphotropic MLV (4070A envelope), on purified viral particles (amphotropic murine leukemia virus (4070A envelope)); assay: ELISA on plate-bound MLV, dilution factor 156250, Exp074-DTV Plate 2
[14] = target: gp70 env protein of amphotropic MLV (4070A envelope), on purified viral particles (amphotropic murine leukemia virus (4070A envelope)); assay: ELISA on plate-bound MLV, dilution factor 10, inter-assay mean of six experiments
[15] = target: gp70 env protein of amphotropic MLV (4070A envelope), on purified viral particles (amphotropic murine leukemia virus (4070A envelope)); assay: ELISA on plate-bound MLV, dilution factor 50, Exp073-DTV Plate 1
[16] = target: gp70 env protein of amphotropic MLV (4070A envelope), on purified viral particles (amphotropic murine leukemia virus (4070A envelope)); assay: ELISA on plate-bound MLV, dilution factor 250, Exp122-Ana Plate 1
[17] = target: gp70 env protein of amphotropic MLV (4070A envelope), on purified viral particles (amphotropic murine leukemia virus (4070A envelope)); assay: ELISA on plate-bound MLV, dilution factor 6250, Exp121-Ana Plate 2
[18] = target: gp70 env protein of amphotropic MLV (4070A envelope), on purified viral particles (amphotropic murine leukemia virus (4070A envelope)); assay: ELISA on plate-bound MLV, dilution factor 31250, inter-assay mean of six experiments
[19] = target: gp70 env protein of amphotropic MLV (4070A envelope), on purified viral particles (amphotropic murine leukemia virus (4070A envelope)); assay: ELISA on plate-bound MLV, dilution factor 781250, Exp074-DTV Plate 2
[20] = target: gp70 env protein of amphotropic MLV (4070A envelope), on purified viral particles (amphotropic murine leukemia virus (4070A envelope)); assay: ELISA on plate-bound MLV, dilution factor 156250, Exp073-DTV Plate 1
[21] = target: gp70 env protein of amphotropic MLV (4070A envelope), on purified viral particles (amphotropic murine leukemia virus (4070A envelope)); assay: ELISA on plate-bound MLV, dilution factor 50, Exp125-Ana Plate 2
[22] = target: gp70 env protein of amphotropic MLV (4070A envelope), on purified viral particles (amphotropic murine leukemia virus (4070A envelope)); assay: ELISA on plate-bound MLV, dilution factor 250, Exp122-Ana Plate 2
[23] = target: gp70 env protein of amphotropic MLV (4070A envelope), on purified viral particles (amphotropic murine leukemia virus (4070A envelope)); assay: ELISA on plate-bound MLV, dilution factor 250, Exp073-DTV Plate 1
[24] = target: gp70 env protein of amphotropic MLV (4070A envelope), on purified viral particles (amphotropic murine leukemia virus (4070A envelope)); assay: ELISA on plate-bound MLV, dilution factor 781250, Exp073-DTV Plate 1
[25] = target: gp70 env protein of amphotropic MLV (4070A envelope), on purified viral particles (amphotropic murine leukemia virus (4070A envelope)); assay: ELISA on plate-bound MLV, dilution factor 6250, Exp073-DTV Plate 2
[26] = target: gp70 env protein of amphotropic MLV (4070A envelope), on purified viral particles (amphotropic murine leukemia virus (4070A envelope)); assay: ELISA on plate-bound MLV, dilution factor 1250, Exp072-DTV Plate 1

gp70 env protein of amphotropic MLV (4070A envelope), on purified viral particles (amphotropic murine leukemia virus (4070A envelope)), sequence (P21995 whole entry): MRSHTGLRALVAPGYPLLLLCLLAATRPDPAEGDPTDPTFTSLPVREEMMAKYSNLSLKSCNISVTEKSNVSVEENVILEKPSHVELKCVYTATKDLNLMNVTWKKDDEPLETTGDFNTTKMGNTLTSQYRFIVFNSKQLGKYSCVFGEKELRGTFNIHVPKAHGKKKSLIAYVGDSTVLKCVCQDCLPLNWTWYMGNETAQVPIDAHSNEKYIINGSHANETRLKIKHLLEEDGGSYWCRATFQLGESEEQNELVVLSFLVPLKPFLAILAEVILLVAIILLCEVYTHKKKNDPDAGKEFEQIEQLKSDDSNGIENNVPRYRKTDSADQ

83A25 monoclonal antibody (rat IgG2a, anti-gp70)
Mean OD [1]: 0.105 OD | Mean OD [2]: 1.98 OD | Mean OD [3]: 0.558 OD | Mean OD (inter-assay mean) [4]: 0.693 OD | Mean OD [5]: 1.85 OD | Mean OD [6]: 0.25 OD | Mean OD [7]: 0.643 OD | Mean OD [8]: 0.803 OD | Mean OD [9]: 0.653 OD | Mean OD [10]: 1.75 OD | Mean OD [11]: 0.119 OD | Mean OD [12]: 0.087 OD | Mean OD [13]: 0.131 OD | Mean OD (inter-assay mean) [14]: 2.3 OD | Mean OD [15]: 2.27 OD | Mean OD [16]: 1.86 OD | Mean OD [17]: 0.758 OD | Mean OD (inter-assay mean) [18]: 0.259 OD | Mean OD [19]: 0.107 OD | Mean OD [20]: 0.14 OD | Mean OD [21]: 1.96 OD | Mean OD [22]: 1.7 OD | Mean OD [23]: 2.05 OD | Mean OD [24]: 0.107 OD | Mean OD [25]: 0.773 OD | Mean OD [26]: 1.3 OD
